No end group written: not given here. fl = not defined here

The target in assay [1] is ^D1-3YAClpA^xl (cross-linked ClpA pseudohexamer with alternating WT and defective D1 pore loops) (E. coli) (UniProt P0ABH9).
For assay [2], the target named is T1, ClpS adapter (E. coli, UniProt P0A8Q6 1-106).
T1 sequence: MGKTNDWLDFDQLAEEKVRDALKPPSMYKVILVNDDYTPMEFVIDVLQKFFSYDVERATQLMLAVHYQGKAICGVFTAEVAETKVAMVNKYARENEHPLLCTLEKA
As to the kind of experiment: fluorescence polarisation. For orientation: Fluorescence polarisation rises when a labelled molecule tumbles more slowly, as on binding a larger partner.

Take “^UFtitin-ssrA (ssrA-tagged titin^I27 domain unfolded by chemical modification of its two partially buried cysteines) (domain or fragment)”: the KM of ClpAP degradation of ^UFtitin-ssrA, against ClpA^xl in assay [1] came out at 3 fold. Take LLYVQRDSKEC-fl (reading uncertain; also: printed as LLYVQRDSKEC-fl) [LLYVQRDSKEC-fl fluorescent N-degron peptide]: the binding result in assay [2] is given as “binds”.

The record behind these values is article PMC8666677 (The Journal of Biological Chemistry, 2021).
